This note sets out measurements from patent publication US20220227809A1.

Test [1] addresses norovirus GII.17 Saitama strain virus-like particle (VLP) (norovirus GII.17 Saitama strain). Put plainly: BLI (BLItz), biotinylated peptide on SA chip, VLP in solution.
Test [2] addresses norovirus GII.3 TCH strain virus-like particle (VLP) (norovirus GII.3 TCH strain). Described as above.

Ends that are not written are not given here.

B1: norovirus-binding peptide of SEQ ID NO: 167 (peptide)
peptide: FVWRRRAGLY
modifications: also: biotinylated via PEG3 (AEEEA)-Trp spacer, attachment site and resin-derived C-terminal Lys or Cys not given here
In test [1], B1 came in with a dissociation constant (Kd) of 0.696 nM, a koff of 0.00111 s⁻¹ and an on-rate (kon) of 1.59e+06 M⁻¹ s⁻¹. In test [2], this molecule gave a Kd of 1.39 nM, an off-rate constant (koff) of 0.00435 s⁻¹ and a kon of 3.14e+06 M⁻¹ s⁻¹.

B2: norovirus-binding peptide of SEQ ID NO: 103 (peptide)
peptide: RFLVPVVKVM
modifications: also: biotinylated via PEG3 (AEEEA)-Trp spacer, attachment site and resin-derived C-terminal Lys or Cys not given here
For the molecule B2, in test [1], the equilibrium dissociation constant (Kd) came to 8.13 nM, the koff was 0.0112 s⁻¹ and the kon was 1.38e+06 M⁻¹ s⁻¹. In test [2], this molecule displayed a dissociation constant (Kd) of 8.07 nM, a koff of 0.017 s⁻¹ and an on-rate (kon) of 2.1e+06 M⁻¹ s⁻¹.

B3: norovirus-binding peptide of SEQ ID NO: 263 (peptide)
peptide: ANYRWSRSIK
modifications: also: biotinylated via PEG3 (AEEEA)-Trp spacer, attachment site and resin-derived C-terminal Lys or Cys not given here
As for B3, in test [2], the dissociation constant (Kd) was determined as 57.5 nM, the off-rate (koff) turned out to be 0.049 s⁻¹ and the on-rate constant (kon) turned out to be 851000 M⁻¹ s⁻¹.

B4: norovirus-binding peptide of SEQ ID NO: 283 (peptide)
peptide: RSMSLHVSMT
modifications: also: biotinylated via PEG3 (AEEEA)-Trp spacer, attachment site and resin-derived C-terminal Lys or Cys not given here
In test [1], B4 displayed a Kd of 1.39 nM, an off-rate constant (koff) of 0.00138 s⁻¹ and a kon of 994000 M⁻¹ s⁻¹. For the same molecule, in test [2], the Kd came out at 0.909 nM, the off-rate (koff) was determined as 0.00715 s⁻¹ and the kon worked out at 7.86e+06 M⁻¹ s⁻¹.

B5: norovirus-binding peptide of SEQ ID NO: 205 (peptide)
peptide: FVWSRRTGLY
modifications: also: biotinylated via PEG3 (AEEEA)-Trp spacer, attachment site and resin-derived C-terminal Lys or Cys not given here
Regarding B5, in test [1], the equilibrium dissociation constant (Kd) was 109 nM, the koff was 0.0184 s⁻¹ and the kon is 169000 M⁻¹ s⁻¹. In test [2], the Kd was 31.6 nM, the koff is 0.0325 s⁻¹ and the on-rate (kon) was determined as 1.03e+06 M⁻¹ s⁻¹.

B6: norovirus-binding peptide of SEQ ID NO: 302 (peptide)
peptide: VWWGRRISRF
modifications: also: biotinylated via PEG3 (AEEEA)-Trp spacer, attachment site and resin-derived C-terminal Lys or Cys not given here
B6: in test [1], the Kd turned out to be 28.4 nM, the koff came to 0.0648 s⁻¹ and the kon amounted to 2.28e+06 M⁻¹ s⁻¹.

B7: norovirus-binding peptide of SEQ ID NO: 288 (peptide)
peptide: CKARSARGVS
modifications: also: biotinylated via PEG3 (AEEEA)-Trp spacer, attachment site and resin-derived C-terminal Lys or Cys not given here
Regarding B7, in test [1], the Kd was 12 nM, the dissociation rate constant (koff) was 0.00747 s⁻¹ and the kon is 620000 M⁻¹ s⁻¹. In test [2], this molecule displayed a Kd of 6.86 nM, a koff of 0.0143 s⁻¹ and a kon of 2.09e+06 M⁻¹ s⁻¹.

The term Kd denotes the free concentration of one partner at which half of the binding sites on the other are occupied at equilibrium, for simple one-to-one binding. In general, koff refers to the first-order rate constant of dissociation. Broadly, the kon is the second-order rate constant of association.
